Assay results published in the Human Domainome abundance scans (Beltran et al. 2025).
± gives the uncertainty stated by the source.

B1: Transitional endoplasmic reticulum ATPase, residues 26 to 106; numbered along this chain, P55072 (parent)
chain: LIVDEAINEDNSVVSLSQPKMDELQLFRGDTVLLKGKKRREAVCIVLSDDTCSDEKIRMNRVVRNNLRVRLGDVISIQPCP

Variants of: B1
Test: abundance fitness (aPCA) (normalised: wild type 0, dead -1); higher = more abundant; growth selection in yeast, the domain comes from the species named
Details: Homo sapiens

Abundance fitness: each site, then its substitutions
S76: H 0 ± 0.17, P -0.467 ± 0.16, G -0.021 ± 0.043, V 0.023 ± 0.064, R -0.046 ± 0.044, A -0.036 ± 0.073, F -0.043 ± 0.11, Y -0.107 ± 0.12, T -0.146 ± 0.091, Q 0.057 ± 0.11, L -0.112 ± 0.06, C -0.015 ± 0.096, E -0.096 ± 0.088, M -0.012 ± 0.087, I -0.173 ± 0.13, W -0.207 ± 0.082
D73: P -0.915 ± 0.19, K -0.309 ± 0.14, L -0.922 ± 0.13, M -0.391 ± 0.11, N -0.102 ± 0.22, H -0.135 ± 0.14, R -0.715 ± 0.084, T -0.252 ± 0.097, W -0.412 ± 0.13, S -0.012 ± 0.07, I -0.655 ± 0.24, C -0.343 ± 0.15, V -0.949 ± 0.093, Q 0.004 ± 0.096, F -0.861 ± 0.18
R58: S -0.253 ± 0.062, T -0.515 ± 0.13, E -0.376 ± 0.098, M -0.068 ± 0.095, I -0.089 ± 0.2, Q -0.185 ± 0.14, H -0.246 ± 0.25, Y -0.093 ± 0.4, C -0.255 ± 0.13, P -0.927 ± 0.32, K -0.013 ± 0.12, V -0.521 ± 0.1, F -0.216 ± 0.19, L -0.037 ± 0.072, W -0.625 ± 0.15, G -0.156 ± 0.056
L67: R -0.956 ± 0.12, W -0.976 ± 0.17, V -0.35 ± 0.058, A -0.601 ± 0.074, D -0.823 ± 0.25, E -0.853 ± 0.15, N -0.757 ± 0.2, T -0.693 ± 0.25, S -0.893 ± 0.12, P -0.789 ± 0.14, C -0.175 ± 0.084, M -0.247 ± 0.073, F -0.411 ± 0.14, G -0.896 ± 0.1, I -0.057 ± 0.083
R70: F -0.184 ± 0.1, V -0.076 ± 0.064, P -0.327 ± 0.094, N -0.101 ± 0.12, W -0.127 ± 0.072, S 0.036 ± 0.062, A 0.043 ± 0.062, Y 0.005 ± 0.15, D -0.091 ± 0.13, T 0.017 ± 0.085, M -0.077 ± 0.092, L 0.037 ± 0.06, I -0.242 ± 0.19, E 0.106 ± 0.092, Q -0.157 ± 0.12, G 0.049 ± 0.056, H -0.152 ± 0.11
V69: R -0.665 ± 0.079, A -0.045 ± 0.064, C 0.067 ± 0.072, G -0.886 ± 0.097, Q -0.689 ± 0.085, I -0.022 ± 0.079, Y -0.781 ± 0.35, M -0.032 ± 0.1, W -0.987 ± 0.24, P -1.03 ± 0.3, T -0.12 ± 0.079, H -1 ± 0.43, F -0.717 ± 0.15, K -0.514 ± 0.18, S -0.255 ± 0.072
N66: M -0.04 ± 0.14, W -0.255 ± 0.092, L -0.012 ± 0.066, S -0.044 ± 0.061, G -0.021 ± 0.051, V -0.104 ± 0.06, K 0.086 ± 0.091, E 0.042 ± 0.084, I -0.151 ± 0.1, C -0.374 ± 0.27, P -0.952 ± 0.2, T 0.007 ± 0.11, A -0.071 ± 0.069, F -0.263 ± 0.083, Y -0.176 ± 0.13, H -0.314 ± 0.14
G72: R -0.177 ± 0.051, N -0.043 ± 0.28, L -0.42 ± 0.072, M -0.392 ± 0.12, Q -0.424 ± 0.13, E -0.23 ± 0.088, F -0.336 ± 0.22, S -0.278 ± 0.082, K -0.317 ± 0.097, C -0.453 ± 0.2, T -0.037 ± 0.1, D -0.187 ± 0.15, P -0.891 ± 0.21, A -0.271 ± 0.061, H -0.257 ± 0.16, Y -0.256 ± 0.23, W -0.363 ± 0.073
N65: R -0.044 ± 0.054, D 0.017 ± 0.11, H -0.038 ± 0.11, T -0.07 ± 0.1, E -0.02 ± 0.17, F -0.116 ± 0.07, V -0.131 ± 0.063, C -0.106 ± 0.095, M -0.054 ± 0.1, S 0.025 ± 0.062, P -0.926 ± 0.21, L -0.074 ± 0.051, A -0.026 ± 0.067, Y -0.14 ± 0.14, W -0.157 ± 0.068, G -0.066 ± 0.056, Q -0.075 ± 0.095
I77: E -0.85 ± 0.22, A -0.309 ± 0.075, F -0.259 ± 0.11, C -0.074 ± 0.2
M59: V -0.166 ± 0.11, C -0.066 ± 0.088, A -0.258 ± 0.086, G -1.01 ± 0.18, W -0.99 ± 0.14, I -0.002 ± 0.14, T -0.275 ± 0.1, S -0.817 ± 0.13, P -1.12 ± 0.32, E -0.768 ± 0.43, F -0.333 ± 0.11, K -1.03 ± 0.21, R -1.08 ± 0.13
N60: R -0.325 ± 0.073, W -0.899 ± 0.24, T -0.019 ± 0.08, H -0.045 ± 0.19, C -0.182 ± 0.16, E -0.266 ± 0.11, V -0.418 ± 0.071, G -0.065 ± 0.082, D -0.077 ± 0.092, A -0.009 ± 0.075, P -0.046 ± 0.079, Q -0.307 ± 0.1, S 0.085 ± 0.074, M -0.552 ± 0.16, L -0.756 ± 0.13, I -0.681 ± 0.32, F -0.889 ± 0.16, Y -0.811 ± 0.39
R61: K 0.079 ± 0.095, Y -0.059 ± 0.21, W -0.119 ± 0.079, V -0.005 ± 0.059, C 0.005 ± 0.16, A 0.059 ± 0.067, T -0.009 ± 0.092, M -0.178 ± 0.19, F -0.158 ± 0.14, P -0.003 ± 0.15, G -0.025 ± 0.061, Q -0.036 ± 0.18, L -0.006 ± 0.062, S -0.024 ± 0.092, I -0.026 ± 0.15, N -0.091 ± 0.15, H -0.157 ± 0.18, D -0.024 ± 0.14
K56: Y -0.022 ± 0.1, R -0.012 ± 0.068, T 0.091 ± 0.085, Q 0.067 ± 0.1, W -0.35 ± 0.055, V -0.021 ± 0.063, S 0.034 ± 0.061
R68: V -0.124 ± 0.063, L -0.033 ± 0.057, S 0.068 ± 0.073, H -0.009 ± 0.13, K 0.122 ± 0.12, P -0.891 ± 0.17, D -0.064 ± 0.12, F -0.165 ± 0.14, E 0.047 ± 0.084, Y 0.274 ± 0.23, Q -0.119 ± 0.1, C -0.114 ± 0.14, I -0.588 ± 0.21, M 0.01 ± 0.087, N -0.123 ± 0.14, T -0.14 ± 0.09, W -0.169 ± 0.097
L71: E 0.07 ± 0.069, Q -0.028 ± 0.076, K -0.026 ± 0.091, N 0.103 ± 0.14, M -0.002 ± 0.12, C -0.112 ± 0.11, G 0.009 ± 0.053, D -0.086 ± 0.15, I 0.045 ± 0.13, S -0.004 ± 0.073, A 0.114 ± 0.066, T 0.083 ± 0.097, Y -0.391 ± 0.34, P -0.083 ± 0.061, R -0.102 ± 0.055, F -0.184 ± 0.25, V -0.048 ± 0.058
V62: R -0.013 ± 0.056, L 0.005 ± 0.055, D 0.004 ± 0.12, M 0.022 ± 0.087, K 0.003 ± 0.092, A -0.04 ± 0.06, Y -0.195 ± 0.13, H 0.038 ± 0.14, G 0.025 ± 0.052, W -0.028 ± 0.063, C 0.029 ± 0.095, P -0.378 ± 0.11, I 0.011 ± 0.13, N 0.109 ± 0.21, F -0.023 ± 0.12, S 0.051 ± 0.062
V74: E 0.051 ± 0.11, A 0.031 ± 0.077, P 0.009 ± 0.095, W -0.087 ± 0.091, N 0.034 ± 0.2, F 0.042 ± 0.078, C -0.039 ± 0.08, D -0.022 ± 0.091, I -0.115 ± 0.091, K 0.008 ± 0.13, Y -0.052 ± 0.11, L -0.117 ± 0.064, R 0.036 ± 0.062, S -0.048 ± 0.064, M -0.107 ± 0.093, Q 0.037 ± 0.095, G -0.085 ± 0.052
I57: K -0.931 ± 0.35, A -0.356 ± 0.064, E -0.804 ± 0.15, Q -0.816 ± 0.18, P -0.933 ± 0.17, R -0.931 ± 0.14, L -0.224 ± 0.066, S -0.861 ± 0.15, T -0.622 ± 0.11, V -0.019 ± 0.058, N -0.716 ± 0.3, C -0.492 ± 0.16, W -0.848 ± 0.18, M -0.198 ± 0.084, G -0.951 ± 0.15
V63: D 0.029 ± 0.12, M -0.095 ± 0.11, W -0.342 ± 0.1, R -0.445 ± 0.066, C 0.031 ± 0.09, A 0.054 ± 0.073, N -0.276 ± 0.17, I 0.029 ± 0.14, F -0.061 ± 0.14, L 0 ± 0.061, G -0.253 ± 0.058, K -0.433 ± 0.11, P -0.896 ± 0.29, E -0.223 ± 0.14, T 0.072 ± 0.12
I75: T -0.495 ± 0.14, M -0.2 ± 0.11, Y -0.916 ± 0.31, G -0.944 ± 0.19, F -0.859 ± 0.15, L -0.155 ± 0.054, V -0.039 ± 0.069, N -0.842 ± 0.31, D -0.863 ± 0.41, Q -1.11 ± 0.28, C -0.265 ± 0.12, A -0.246 ± 0.088, K -1.05 ± 0.3, E -0.633 ± 0.19, W -1.04 ± 0.37, H -0.695 ± 0.14
R64: G -0.638 ± 0.08, M -0.036 ± 0.16, W -0.684 ± 0.18, A -0.023 ± 0.055, V -0.321 ± 0.065, S -0.303 ± 0.072, E -0.65 ± 0.16, I -0.061 ± 0.17, C -0.227 ± 0.12, P -1.06 ± 0.3, F -0.212 ± 0.23, L -0.044 ± 0.056, Q -0.105 ± 0.1, H -0.415 ± 0.1, T -0.381 ± 0.096, N -0.458 ± 0.17, K -0.365 ± 0.11
